This note sets out measurements from patent EP4814011A1 (Shanghai Huaota Biopharmaceutical Co., Ltd., dated 2026).

The target of assay [1] is T1, human TSLP with His tag (ACRO, TSP-H52Ha) (human, UniProt Q969D9 29-159).
T1 construct: Bought protein; also called human TSLP antigens; Human TSLP (Acro, #TSP-H52Ha); not shown: His tag
As to the kind of experiment: SPR, His-TSLP captured on anti-His CM5, antibody analyte. For orientation: In SPR one partner is held on a chip, and binding of the other changes the refractive index at the surface.

In assay [2] the target is T2, monkey TSLP antigen (R127A, R130S) Protein, His Tag (ACRO, Cat#: TSP-C52H4) (monkey, UniProt A0A7N9CAT7 29-159).
T2 construct: Bought protein
T2 sequence (A0A7N9CAT7 entry or part of it R127A R130S R127A R130S limits assumed, form in doubt): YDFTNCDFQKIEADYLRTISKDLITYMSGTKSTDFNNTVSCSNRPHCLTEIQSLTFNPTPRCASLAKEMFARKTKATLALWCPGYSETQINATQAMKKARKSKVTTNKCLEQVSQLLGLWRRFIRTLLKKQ
The assay is described as above.

For assay [3], the target named is Human TSLP (form and source not stated) (human, UniProt Q969D9 29-159, limits assumed). In words: cell-based or functional assay.
Assay [4] concerns the target T3, Lysozyme solution from chicken egg (chicken, UniProt P00698 19-147).
T3 construct: Amine coupled to a CM5 chip
In words: SPR, protein coupled to CM5.

The target of assay [5] is T4, Trypsin inhibitor type 1-S from Glycine max (Glycine max, UniProt P01070 25-205).
T4 construct: Amine coupled to a CM5 chip
T4 sequence (looked up): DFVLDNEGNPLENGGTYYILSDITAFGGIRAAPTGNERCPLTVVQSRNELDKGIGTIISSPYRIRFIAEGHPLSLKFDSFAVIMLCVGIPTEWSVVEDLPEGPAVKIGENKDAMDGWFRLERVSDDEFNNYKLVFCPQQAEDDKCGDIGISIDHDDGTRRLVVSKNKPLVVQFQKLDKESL
As to the kind of experiment: SPR, protein coupled to CM5.

T3 sequence (P00698 19-147 limits assumed): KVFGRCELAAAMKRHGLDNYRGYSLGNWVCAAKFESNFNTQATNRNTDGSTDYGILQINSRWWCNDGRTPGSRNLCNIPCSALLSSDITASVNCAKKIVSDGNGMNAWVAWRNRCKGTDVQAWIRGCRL

B1: 900792-huH4L2 (antibody, human IgG1, kappa, L234A L235A, V domains shown)
VH: QVQLVQSGAEVKKPGASVKVSCKASGYAFTNYLIEWVRQAPGQGLEWMGIINPESGDTYYAQKFQGRVTLTADKSTSTAYMELSSLRSEDSAVYYCAKESLTGSSYDYWGQGTTLTVSS
VL: DIQMTQSPSSLSASVGDRVTITCRASENIYSNLVWYQQKPGKAPQLLVYGARNLQSGVPSRFSGSGSGTQFSLTISSLQPEDFATYYCQHFYETPLTFGTGTKLEIKR
notes: Humanized
For the molecule B1, in assay [1], the Kd came out at 0.234 nM, the dissociation rate constant (koff) was 0.000174 s⁻¹ and the kon was determined as 743000 M⁻¹ s⁻¹. Moreover, in assay [2], the Kd came to 3.99 nM, the koff came to 0.013 s⁻¹ and the kon came out at 3.27e+06 M⁻¹ s⁻¹. Also, in assay [3], the “TARC in PBMC supernatant (ELISA)” value is ~10 times better than Tezepelumab. Moreover, in assay [4], the “binding response (RU)” value worked out at 3.3 RU. For the same molecule, in assay [5], the “binding response (RU)” value is 8.6 RU.

B2: 900792-huH4L3 (antibody, human IgG1, kappa, L234A L235A, V domains shown)
VH: QVQLVQSGAEVKKPGASVKVSCKASGYAFTNYLIEWVRQAPGQGLEWMGIINPESGDTYYAQKFQGRVTLTADKSTSTAYMELSSLRSEDSAVYYCAKESLTGSSYDYWGQGTTLTVSS
VL: DIQMTQSPSSLSASVGDRVTITCRASENIYSNLVWYQQKPGKAPQLLIYGARNLQSGVPSRFSGSGSGTQFTLTISSLQPEDFATYYCQHFYETPLTFGTGTKLEIKR
notes: Humanized
In assay [1], B2 returned a Kd of 0.157 nM, a koff of 0.000121 s⁻¹ and a kon of 771000 M⁻¹ s⁻¹. In addition, in assay [2], the Kd was found to be 4.18 nM, the off-rate (koff) came to 0.00989 s⁻¹ and the kon stood at 2.37e+06 M⁻¹ s⁻¹. For the same molecule, in assay [3], the “TARC in PBMC supernatant (ELISA)” value is ~10 times better than Tezepelumab. In addition, the “binding response (RU)” value in assay [4] worked out at 2.4 RU. Besides, the “binding response (RU)” value in assay [5] was 6.6 RU.

By Kd is commonly meant the constant that tells how readily two partners part at equilibrium. One may read the koff as a measure of how fast the partners let go of each other. As a reminder, the kon is the second-order rate constant of association.
